Results on one substance are retold here after doi:10.1101/2024.12.23.629660.

For the assay, the target named is Arabidopsis thaliana Fatty Acid Thioesterase A (FatA) (Arabidopsis thaliana) (UniProt Q42561). Put plainly: crystal structure.

What is called stoichiometry N is the number of molecules, sites or subunits per partner or assembly. With “Arabidopsis thaliana Fatty Acid Thioesterase A (FatA) (from UniProt Q42561 75-362) (enzyme)”, the stoichiometry N was 2.
